Results taken from article PMC5856775.

Assays:
ANAPC10 [1] = assay: Strep-tactin pull-down, mass spectrometry spectral counting; settings: complexes SUMOylated in vitro, HeLa lysate added; three biological repeats measured in three technical repeats each
ANAPC13 [2] = assay: as above; settings: complexes SUMOylated in vitro, HeLa lysate added; three biological repeats measured in three technical repeats each
ANAPC15 [3] = assay: as above; settings: complexes SUMOylated in vitro, HeLa lysate added; three biological repeats measured in three technical repeats each
ANAPC16 [4] = assay: as above; settings: complexes SUMOylated in vitro, HeLa lysate added; three biological repeats measured in three technical repeats each
ANAPC1 [5] = assay: as above; settings: complexes SUMOylated in vitro, HeLa lysate added; three biological repeats measured in three technical repeats each
ANAPC2 [6] = assay: as above; settings: complexes SUMOylated in vitro, HeLa lysate added; three biological repeats measured in three technical repeats each
ANAPC5 [7] = assay: as above; settings: complexes SUMOylated in vitro, HeLa lysate added; three biological repeats measured in three technical repeats each
CDC16 [8] = assay: as above; settings: complexes SUMOylated in vitro, HeLa lysate added; three biological repeats measured in three technical repeats each
CDC23 [9] = assay: as above; settings: complexes SUMOylated in vitro, HeLa lysate added; three biological repeats measured in three technical repeats each
CDC26 [10] = assay: as above; settings: complexes SUMOylated in vitro, HeLa lysate added; three biological repeats measured in three technical repeats each
CDC27 [11] = assay: as above; settings: complexes SUMOylated in vitro, HeLa lysate added; three biological repeats measured in three technical repeats each
ANAPC10 [12] = assay: Strep-tactin pull-down, label-free quantification mass spectrometry; settings: complexes SUMOylated in vitro, HeLa lysate added; three biological repeats measured in three technical repeats each
ANAPC13 [13] = assay: as above; settings: complexes SUMOylated in vitro, HeLa lysate added; three biological repeats measured in three technical repeats each
ANAPC15 [14] = assay: as above; settings: complexes SUMOylated in vitro, HeLa lysate added; three biological repeats measured in three technical repeats each
ANAPC16 [15] = assay: as above; settings: complexes SUMOylated in vitro, HeLa lysate added; three biological repeats measured in three technical repeats each
ANAPC1 [16] = assay: as above; settings: complexes SUMOylated in vitro, HeLa lysate added; three biological repeats measured in three technical repeats each
ANAPC2 [17] = assay: as above; settings: complexes SUMOylated in vitro, HeLa lysate added; three biological repeats measured in three technical repeats each
ANAPC5 [18] = assay: as above; settings: complexes SUMOylated in vitro, HeLa lysate added; three biological repeats measured in three technical repeats each
CDC16 [19] = assay: as above; settings: complexes SUMOylated in vitro, HeLa lysate added; three biological repeats measured in three technical repeats each
CDC23 [20] = assay: as above; settings: complexes SUMOylated in vitro, HeLa lysate added; three biological repeats measured in three technical repeats each
CDC26 [21] = assay: as above; settings: complexes SUMOylated in vitro, HeLa lysate added; three biological repeats measured in three technical repeats each
CDC27 [22] = assay: as above; settings: complexes SUMOylated in vitro, HeLa lysate added; three biological repeats measured in three technical repeats each
BAX = assay: Strep-tactin pull-down from HeLa lysate, label-free quantification mass spectrometry; settings: three biological repeats measured in three technical repeats each; -log10(p-value) est. 1.7; read off a plot
COPS7A = assay: as above; settings: three biological repeats measured in three technical repeats each; -log10(p-value) est. 2.2; read off a plot
EIF1 = assay: as above; settings: three biological repeats measured in three technical repeats each; -log10(p-value) est. 1.2; read off a plot
FAM91A1 = assay: as above; settings: three biological repeats measured in three technical repeats each; -log10(p-value) est. 3.0; read off a plot
GPHN = assay: as above; settings: three biological repeats measured in three technical repeats each; -log10(p-value) est. 1.3; read off a plot
HSP90AB4P = assay: as above; settings: three biological repeats measured in three technical repeats each; -log10(p-value) est. 1.0; read off a plot
KIF18B = KIF18B (UniProt Q86Y91); assay: as above; settings: three biological repeats measured in three technical repeats each; -log10(p-value) est. 1.5; read off a plot
Chain of UniProt Q86Y91 (Q86Y91 whole entry, looked up): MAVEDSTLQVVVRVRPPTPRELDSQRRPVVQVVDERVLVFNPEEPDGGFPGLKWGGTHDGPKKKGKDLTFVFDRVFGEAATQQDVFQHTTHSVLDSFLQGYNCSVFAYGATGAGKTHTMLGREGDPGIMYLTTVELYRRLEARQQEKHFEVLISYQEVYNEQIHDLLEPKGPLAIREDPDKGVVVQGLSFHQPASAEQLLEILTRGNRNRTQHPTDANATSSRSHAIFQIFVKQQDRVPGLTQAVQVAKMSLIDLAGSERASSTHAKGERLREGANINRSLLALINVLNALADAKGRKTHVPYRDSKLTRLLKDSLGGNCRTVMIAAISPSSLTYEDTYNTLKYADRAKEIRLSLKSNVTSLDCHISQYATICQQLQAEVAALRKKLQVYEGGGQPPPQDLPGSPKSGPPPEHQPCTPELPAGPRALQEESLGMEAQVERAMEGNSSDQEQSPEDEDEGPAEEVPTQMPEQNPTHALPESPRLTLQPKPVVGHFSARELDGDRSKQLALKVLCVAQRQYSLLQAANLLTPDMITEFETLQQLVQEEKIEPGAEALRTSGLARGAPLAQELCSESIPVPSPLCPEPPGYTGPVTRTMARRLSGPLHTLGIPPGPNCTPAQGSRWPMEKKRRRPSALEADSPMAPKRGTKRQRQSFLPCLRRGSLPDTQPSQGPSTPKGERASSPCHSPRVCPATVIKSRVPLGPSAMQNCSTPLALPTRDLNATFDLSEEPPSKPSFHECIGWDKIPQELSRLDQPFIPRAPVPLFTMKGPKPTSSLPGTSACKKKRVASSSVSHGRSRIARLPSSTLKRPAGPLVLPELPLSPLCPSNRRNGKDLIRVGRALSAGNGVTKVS

LYST = assay: as above; settings: three biological repeats measured in three technical repeats each; -log10(p-value) est. 0.97; read off a plot
NUP35 = assay: as above; settings: three biological repeats measured in three technical repeats each; -log10(p-value) est. 3.6; read off a plot
Nbla03646 = assay: as above; settings: three biological repeats measured in three technical repeats each; -log10(p-value) est. 2.1; read off a plot
RacGAP1 = RacGAP1 (UniProt Q9H0H5); assay: as above; settings: three biological repeats measured in three technical repeats each; -log10(p-value) est. 2.8; read off a plot
Chain of UniProt Q9H0H5 (Q9H0H5 whole entry, looked up): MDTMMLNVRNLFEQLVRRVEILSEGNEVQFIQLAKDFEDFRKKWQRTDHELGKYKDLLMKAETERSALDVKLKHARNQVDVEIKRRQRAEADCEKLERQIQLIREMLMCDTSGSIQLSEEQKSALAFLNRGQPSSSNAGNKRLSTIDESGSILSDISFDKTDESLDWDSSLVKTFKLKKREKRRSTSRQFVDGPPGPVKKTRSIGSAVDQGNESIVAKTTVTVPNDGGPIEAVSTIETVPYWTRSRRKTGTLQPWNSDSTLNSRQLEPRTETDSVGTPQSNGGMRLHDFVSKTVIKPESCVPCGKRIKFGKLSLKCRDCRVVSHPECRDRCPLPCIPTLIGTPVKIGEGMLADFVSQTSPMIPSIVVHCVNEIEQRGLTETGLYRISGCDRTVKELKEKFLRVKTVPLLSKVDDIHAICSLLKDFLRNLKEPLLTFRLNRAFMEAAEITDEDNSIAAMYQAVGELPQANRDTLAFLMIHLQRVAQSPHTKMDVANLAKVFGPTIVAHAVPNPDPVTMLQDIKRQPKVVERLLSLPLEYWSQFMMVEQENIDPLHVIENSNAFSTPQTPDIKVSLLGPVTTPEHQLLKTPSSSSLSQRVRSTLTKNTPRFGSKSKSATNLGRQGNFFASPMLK

SMG8 = assay: as above; settings: three biological repeats measured in three technical repeats each; -log10(p-value) est. 2.2; read off a plot
TIMM13 = assay: as above; settings: three biological repeats measured in three technical repeats each; -log10(p-value) est. 2.6; read off a plot
TUBA1A = assay: as above; settings: three biological repeats measured in three technical repeats each; -log10(p-value) est. 3.7; read off a plot
TUBA3C = assay: as above; settings: three biological repeats measured in three technical repeats each; -log10(p-value) est. 4.2; read off a plot
TUBB2B = assay: as above; settings: three biological repeats measured in three technical repeats each; -log10(p-value) est. 3.6; read off a plot
TUBB4A = assay: as above; settings: three biological repeats measured in three technical repeats each; -log10(p-value) est. 3.8; read off a plot
UBL4A = assay: as above; settings: three biological repeats measured in three technical repeats each; -log10(p-value) est. 1.4; read off a plot

Strep-tagged APC4 wild type of the recombinant APC/C, SUMOylated in vitro (from UniProt Q9UJX5;P55854) K772R; K798R
other: MS/MS ratio (WT/mutant, log2) (ANAPC10 [1]): 0.34 log2 | other: MS/MS ratio (WT/mutant, log2) (ANAPC13 [2]): 0.12 log2 | other: MS/MS ratio (WT/mutant, log2) (ANAPC15 [3]): 0.2 log2 | other: MS/MS ratio (WT/mutant, log2) (ANAPC16 [4]): 0.19 log2 | other: MS/MS ratio (WT/mutant, log2) (ANAPC1 [5]): 0.26 log2 | other: MS/MS ratio (WT/mutant, log2) (ANAPC2 [6]): 0.08 log2 | other: MS/MS ratio (WT/mutant, log2) (ANAPC5 [7]): 0.17 log2 | other: MS/MS ratio (WT/mutant, log2) (CDC16 [8]): 0.23 log2 | other: MS/MS ratio (WT/mutant, log2) (CDC23 [9]): 0.31 log2 | other: MS/MS ratio (WT/mutant, log2) (CDC26 [10]): 0.17 log2 | other: MS/MS ratio (WT/mutant, log2) (CDC27 [11]): 0.24 log2 | other: LFQ ratio (WT/mutant, log2) (ANAPC10 [12]): 0.44 log2 | other: LFQ ratio (WT/mutant, log2) (ANAPC13 [13]): 0.25 log2 | other: LFQ ratio (WT/mutant, log2) (ANAPC15 [14]): 0.4 log2 | other: LFQ ratio (WT/mutant, log2) (ANAPC16 [15]): 0.37 log2 | other: LFQ ratio (WT/mutant, log2) (ANAPC1 [16]): 0.35 log2 | other: LFQ ratio (WT/mutant, log2) (ANAPC2 [17]): 0.4 log2 | other: LFQ ratio (WT/mutant, log2) (ANAPC5 [18]): 0.22 log2 | other: LFQ ratio (WT/mutant, log2) (CDC16 [19]): 0.34 log2 | other: LFQ ratio (WT/mutant, log2) (CDC23 [20]): 0.33 log2 | other: LFQ ratio (WT/mutant, log2) (CDC26 [21]): 0.49 log2 | other: LFQ ratio (WT/mutant, log2) (CDC27 [22]): 0.36 log2

SUMOylated recombinant APC/C containing APC4 wild type (from UniProt Q9UJX5;P55854;Q9UJX3;Q9NYG5;Q9H1A4;Q9UJX6;P30260;Q9UJX4;Q9UJX2;P60006) K772R; K798R
other: Ratio (log2) of protein intensities, wild-type APC4 / mutant APC4 (BAX): 1.3 log2 | other: Ratio (log2) of protein intensities, wild-type APC4 / mutant APC4 (COPS7A): 1 log2 | other: Ratio (log2) of protein intensities, wild-type APC4 / mutant APC4 (EIF1): -1.6 log2 | other: Ratio (log2) of protein intensities, wild-type APC4 / mutant APC4 (FAM91A1): 2.4 log2 | other: Ratio (log2) of protein intensities, wild-type APC4 / mutant APC4 (GPHN): -1.7 log2 | other: Ratio (log2) of protein intensities, wild-type APC4 / mutant APC4 (HSP90AB4P): 2.5 log2 | other: Ratio (log2) of protein intensities, wild-type APC4 / mutant APC4 (KIF18B): 1.8 log2 | other: Ratio (log2) of protein intensities, wild-type APC4 / mutant APC4 (LYST): 3.8 log2 | other: Ratio (log2) of protein intensities, wild-type APC4 / mutant APC4 (NUP35): -1.4 log2 | other: Ratio (log2) of protein intensities, wild-type APC4 / mutant APC4 (Nbla03646): -2.9 log2 | other: Ratio (log2) of protein intensities, wild-type APC4 / mutant APC4 (RacGAP1): -1.6 log2 | other: Ratio (log2) of protein intensities, wild-type APC4 / mutant APC4 (SMG8): -1 log2 | other: Ratio (log2) of protein intensities, wild-type APC4 / mutant APC4 (TIMM13): -1.8 log2 | other: Ratio (log2) of protein intensities, wild-type APC4 / mutant APC4 (TUBA1A): -1.5 log2 | other: Ratio (log2) of protein intensities, wild-type APC4 / mutant APC4 (TUBA3C): -1.9 log2 | other: Ratio (log2) of protein intensities, wild-type APC4 / mutant APC4 (TUBB2B): 4.3 log2 | other: Ratio (log2) of protein intensities, wild-type APC4 / mutant APC4 (TUBB4A): -1 log2 | other: Ratio (log2) of protein intensities, wild-type APC4 / mutant APC4 (UBL4A): -1.4 log2
